# Laboratory results from the supplement of paper PMC9170038.
# System: MS2 coat protein
# Assay: apparent KD of MS2 coat protein; designed switch direction (-1 OFF switch, 1 ON switch): -1; higher = weaker reporter binding
# Procedure, shortened: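 Each step of the titration lasted 0.8–1.5 h at the lowest concentration and 10–20 min at the highest. The protein, SNAP-549-labelled MS2 coat protein, went from 0.7 or 1.5 nM doubling to 3 µM over RNA switches transcribed on Illumina chips by stalled E. coli RNA polymerase. Normalised cluster fluorescence was curve-fitted, and the per-design median over clusters is given as apparent KD.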
# [1] = input ligand: microRNA oligo, concentration not stated
# [2] = Eterna round: R95, input ligand: FMN 200 uM
# [3] = Eterna round: R95, input ligand: microRNA oligo, concentration not stated
# [4] = Eterna round: R95, input ligand: none
Sequence,apparent KD of MS2 coat protein (input ligand: FMN 200 uM),apparent KD of MS2 coat protein [1],apparent KD of MS2 coat protein (input ligand: none),apparent KD of MS2 coat protein [2],apparent KD of MS2 coat protein [3],apparent KD of MS2 coat protein [4]
"AAAAAAUAAAAAACAAGCUACAUGAGGAUCACCCAUGUUACAAAAAUAAAAUAAAAAUAAAAUAAAAGUAAAAUGGG [Sensor V2: 75 Random] (Eterna round: R96, puzzle: Sensor v2, turn-off variant)",145 nM,78.2 nM,98.8 nM,–,–,–
AAAAAGAGAGGAUAUACAACAAAACAAAACAAAACAAACACACAUGAGGAUCACCCAUGUAGAAGGCUCGAAAA [Exclusion 2 #2] (puzzle: Exclusion 2),–,–,–,25.1 nM,16.5 nM,19.3 nM
"AAAAAGGCAGGAUAUGCAUACACACAAAAAAAAAAACUGGGACAUGAGGAUCACCCAUGUAGAAGGGCCAAAAA [Dora Explored 8 - Jieux - Exclusion 2] (Eterna round: R96, puzzle: Exclusion 2)",60.1 nM,53.7 nM,54.1 nM,–,–,–
AAAACACAUGAGGAUCACCCAUGUGAGGAUAUGUUAGUUUCGGCGAAAGCCGAAAUUAACAGAAGGCACAGAAA [JR_Exclusion1_Sub023] (puzzle: Exclusion 1),–,–,–,44.7 nM,39.4 nM,40.1 nM
"AAAACCAGAGGAUAUGCGCAUAGAUCAGACUUUGUUUCUGAACAUGAGGAUCACCCAUGUAGAAGGCUGUAAAA [Ex2 #82] (Eterna round: R97, puzzle: Exclusion 2)",27.3 nM,–,20.5 nM,–,–,–
"AAAACUAACACGAAAGUGUUAGUAAAAUAAGCUUGUGGUACAUGAGGAUCACCCAUGUCCUCAUAAGCUCGUCUUAU [Mat - Sensor v3 - Turn-off var 2 - D44] (puzzle: Sensor v3, turn-off variant 2)",–,–,–,25.1 nM,67.7 nM,24.5 nM
AAAAGGCUAGGAUAUACAUGAGGAUCACCCAUGUGUACUGGACAUGCGGUAUGCGUAUGUAGAAGGAGUAUAAA [Inaisor] (puzzle: Exclusion 3),–,–,–,–,14.2 nM,–
"AAAAGGUGAGGAUAUUCAAGGAAAGACAUGAGGAUCACCCAUGUAAGAAAGGAAAAGGGAGGAGAAGGUGUGAAAA [salish99_ex5_r4_136] (Eterna round: R97, puzzle: Exclusion 5)",62.1 nM,–,60.2 nM,–,–,–
"AAAAUAAUAAGUUUACGAACAUUUAGAAAAAGGGAUCCAACAUGAGGAUCACCCAUGUAUUAUCAGCAUAAACCCUA [JR_Sensorv2_tov2_Sub1270] (Eterna round: R96, puzzle: Sensor v2, turn-off variant 2)",341 nM,270 nM,360 nM,–,–,–
"AAAAUUGGUGAGGAUAUGCAGAUGCGCAAUGUCGCAGAAGGCACCACAUGAGGAUCACCCAUGUGUCCUCUAAA [EX6 A.19] (Eterna round: R97, puzzle: Exclusion 6)",34 nM,–,19.8 nM,–,–,–
"AAACAAUCCCGAGGAUAUCGGCUAUUAGCAUGCCGAGAAGGCGGCGCGCAUCGACAUGAGGAUCACCCAUGUGUCCGCUCGGUU [Eternabot solution 31] (Eterna round: R96, puzzle: Exclusion NG 1)",20.8 nM,13.6 nM,21.6 nM,–,–,–
"AAACCCUCCGUAAGGAUAUGCGCAGGUAAACCGCUGUAGAAGGUACAUGAGGAUCACCCAUGUUGGACCGUGGA [Eternabot (Original) Solution 35] (Eterna round: R97, puzzle: Brourd's mod of Exclusion 4)",36 nM,–,29 nM,–,–,–
AAACCGCAAGGAUAUUGUGGCGCUGACAUGAGGAUCACCCAUGUGGUGCUAGUCCCGCUGCGAGAAGGUGUGUAAA [Enesedrave] (puzzle: Exclusion 5),–,–,–,–,12.3 nM,–
"AAACCUGAAGUCAGGAUAUGAAGUAUCACUGUACUUCAGAAGGGACUUGAGGAUCACCCAAGUAGCCGUGAGGC [jl-bmx4.4.67 ViennaUCT mod] (Eterna round: R97, puzzle: Brourd's mod of Exclusion 4)",116 nM,–,28.8 nM,–,–,–
"AAACCUGGAGUUAGGAUAUGAAGUAUCACUGCGCUUCAGAAGGGACUUGAGGAUCACCCAAGUAAAAGUUAAAA [Teredi] (Eterna round: R97, puzzle: Brourd's mod of Exclusion 4)",20.8 nM,–,18.5 nM,–,–,–
"AAACGCAGAGGAUAUACAUAUUUUCCUCAUGUGCAGCUUACACAUGAGGAUCACCCAUGUAGAAGGCUGGAAAA [EX2 A.29] (Eterna round: R97, puzzle: Exclusion 2)",300 nM,–,48.6 nM,–,–,–
"AAACGCUGAGGAUAUAUAUAACAACAAAGCCUCACGUGCCAACAUGAGGAUCACCCAUGUAGAAGGCAGCCCAA [Mod R3 Insanara 12 - Jieux - Exclusion 2] (Eterna round: R97, puzzle: Exclusion 2)",15.8 nM,–,14.1 nM,–,–,–

Sequence,apparent KD of MS2 coat protein (input ligand: FMN 200 uM),apparent KD of MS2 coat protein [1],apparent KD of MS2 coat protein (input ligand: none),apparent KD of MS2 coat protein [2],apparent KD of MS2 coat protein [3],apparent KD of MS2 coat protein [4]
"AAACGGCAGGGAGGAUAUGCUUGCCUGGGUCGUCUUCAAACAUGAGGAUCACCCAUGUAGUCGACGCAGAAGGCCCUCAAAGCC [JL ViennaUCT Ontiis mod 4] (Eterna round: R96, puzzle: Exclusion NG 2)",42.9 nM,8.85 nM,16.7 nM,–,–,–
"AAACGGCAGGGAGGAUAUGCUUGCCUGGGUCGUCUUCAGACAUGAGGAUCACCCAUGUAGUCGACGCAGAAGGCCCUCAAAGCC [JL ViennaUCT Ontiis mod 5] (Eterna round: R96, puzzle: Exclusion NG 2)",158 nM,16.2 nM,18.1 nM,–,–,–
"AAACUGUGAGGAUAUGCACGGGCCCUCUUAAUAAAACCAAAACAUGAGGAUCACCCAUGUAGAAGGCACACAUA [EX2 A.24] (Eterna round: R97, puzzle: Exclusion 2)",53.5 nM,–,543 nM,–,–,–
AAAGAACAUGAGGAUCACCCAUGUGAGGAUAUGUGAGAAUUGUGGAGAAGAAGAGAGAACAGAAGGCACUGAGG [JR_Exclu1_Sub067] (puzzle: Exclusion 1),–,–,–,77 nM,51.3 nM,64.5 nM
"AAAGAUGUAGGAUAUGUCCAUCCAGACAUGAGGAUCACCCAUGUGAGGGCCGGGUGUUGGGCAGAAGGACACCGGU [Eternabot (Original) Solution 19] (Eterna round: R97, puzzle: Exclusion 5)",27.2 nM,–,31.4 nM,–,–,–
"AAAGGAUGCCUAGGAUAUUGACGAAGAAAGGAUUAAGAAGGAGGAAAUAUAUGAGGGAUCCACAUGAGGAUCACCCAUGUACAC [Beveinveor] (Eterna round: R96, puzzle: Exclusion NG 1)",538 nM,458 nM,270 nM,–,–,–
"AAAGUAGGAGGAUAUGGAUAUAGUAACAUGAGGAUCACCCAUGUUCUUGGUGUUCGUUACCCAGAAGGCCUGACAC [Eternabot (L1) Solution 64] (Eterna round: R97, puzzle: Exclusion 5)",184 nM,–,91 nM,–,–,–
AAAGUCGGAGGAUAUACAAUAGAUGACAAUAAAGUUGGAGUACAUGAGGAUCACCCAUGUAGAAGGCCGAGAAA [Swimmer becomes a laser gun] (puzzle: Exclusion 2),–,–,–,28.2 nM,17.3 nM,20.6 nM
"AAAGUGGGCCAGAACAUGAGGAUCACCCAUGUCUGAAAUAGCAAGGAUAUUACGAGCAAAAGGAGUAAGAAGGUGCACAGUACG [Eternabot solution 41] (Eterna round: R96, puzzle: Exclusion NG 3)",24 nM,15.4 nM,23.6 nM,–,–,–
"AAAUAAUAGAUAAAAUAAAACAUGAGGAUCACCCAUGUGGGAUGAUGAGGGUGAAACAAGCUUUUUGCUCGUCUUAU (puzzle: Sensor v3, turn-off variant 1)",–,–,–,386 nM,919 nM,439 nM
"AAAUAAUAGAUAAAAUAAUACAUGAGGAUCACCCAUGUGGGAUGUUGAGGGUGAUACAGGCUUUUUGCUCGUCUUAU (puzzle: Sensor v3, turn-off variant 1)",–,–,–,434 nM,155 nM,207 nM
"AAAUACAAGCAAAGAUCUUACAUGAGGAUCACCCAUGUGUUCGUCUUAUAAAGUACUAUCACGAAAGUGAUAGUACA [Sensor 3, v1 - 32] (puzzle: Sensor v3, turn-off variant 1)",–,–,–,14 nM,89.7 nM,15.4 nM
"AAAUACAAGUAAAGAUCCUACAUGAGGAUCACCCAUGUGCUCGUUUUAUAAAGUACUAUCACGAAAGUGAUAGUACA [Sensor 3, v1 - 23] (puzzle: Sensor v3, turn-off variant 1)",–,–,–,900 nM,4.81 nM,435 nM
"AAAUAGCAUGAGGAUAUUGAACUGUAUACAGUACGAGAAGGCAUGACAUGAGGAUCACCCAUGUUUUGUUGGGA [EX6 #4] (Eterna round: R97, puzzle: Exclusion 6)",119 nM,–,49 nM,–,–,–
"AAAUAGUGAGGAUAUUAGUUGUACGUCAAUAGACGUAUAAGUGAGAAGGCACAUGAGGAUCACCCAUGUUCCUG [Omei Ex4 Mod of Mat's R95 mod of Omei v8] (Eterna round: R97, puzzle: Exclusion 4)",34.4 nM,–,18.3 nM,–,–,–
"AAAUAUCAUGUAGGAUAUGGAAGGCGAACCUAUCCAGAAGGACAUGAGGAUCACCCAUGUGCUGCGUUGUCCGUAGACAGCGCU [Ex NG1 #2] (Eterna round: R96, puzzle: Exclusion NG 1)",88.2 nM,21.1 nM,31.4 nM,–,–,–
